Experimental data: patent US20190092856A1 (published 2019)

T1: Cynomolgus monkey (Macaca fascicularis) OSM, recombinant, in-house (cynomolgus monkey, UniProt P13725 26-221 (human entry), limits assumed)
T1 construct: His/AviTag construct expressed in HEK 293; also called Cyno OSM; cyno OSM
T1 chain: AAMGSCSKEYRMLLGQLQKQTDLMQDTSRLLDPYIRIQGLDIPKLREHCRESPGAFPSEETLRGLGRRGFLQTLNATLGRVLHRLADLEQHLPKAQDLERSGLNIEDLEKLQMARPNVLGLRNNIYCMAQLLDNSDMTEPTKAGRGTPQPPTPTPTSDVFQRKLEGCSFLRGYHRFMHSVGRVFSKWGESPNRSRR

T2: human OSM (recombinant, mammalian-cell derived, OSMN1-1) (human, UniProt P13725 26-221)
T2 construct: Precursor and mature (amino acids 1-184) forms were both expressed in HEK 293; also called hOSM; human oncostatin M
T2 sequence: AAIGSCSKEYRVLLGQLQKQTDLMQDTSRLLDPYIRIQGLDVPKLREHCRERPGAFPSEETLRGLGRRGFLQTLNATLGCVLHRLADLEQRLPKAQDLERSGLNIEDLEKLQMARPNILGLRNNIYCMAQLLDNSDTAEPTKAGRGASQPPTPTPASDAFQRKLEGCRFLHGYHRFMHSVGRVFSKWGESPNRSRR

T3: native human Oncostatin M (macrophage-derived) (human, UniProt P13725 26-221, limits assumed)
T3 sequence: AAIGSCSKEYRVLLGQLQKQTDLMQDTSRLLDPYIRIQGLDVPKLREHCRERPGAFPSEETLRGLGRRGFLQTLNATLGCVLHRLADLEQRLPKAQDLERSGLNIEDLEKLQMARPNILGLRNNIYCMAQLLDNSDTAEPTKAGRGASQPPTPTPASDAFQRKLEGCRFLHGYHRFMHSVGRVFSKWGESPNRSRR

T4: CHO cell-derived recombinant human oncostatin M (in-house) (human, UniProt P13725 26-221, limits assumed)
T4 sequence: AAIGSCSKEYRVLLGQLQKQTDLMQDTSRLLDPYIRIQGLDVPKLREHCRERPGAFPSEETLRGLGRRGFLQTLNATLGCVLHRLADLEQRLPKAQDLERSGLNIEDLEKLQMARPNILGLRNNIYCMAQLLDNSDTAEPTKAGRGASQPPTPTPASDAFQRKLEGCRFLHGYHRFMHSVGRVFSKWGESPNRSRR

T5: CHO cell-derived recombinant cynomolgous monkey oncostatin M (in-house) (cynomolgus monkey, UniProt P13725 26-221 (human entry), limits assumed)
T5 chain: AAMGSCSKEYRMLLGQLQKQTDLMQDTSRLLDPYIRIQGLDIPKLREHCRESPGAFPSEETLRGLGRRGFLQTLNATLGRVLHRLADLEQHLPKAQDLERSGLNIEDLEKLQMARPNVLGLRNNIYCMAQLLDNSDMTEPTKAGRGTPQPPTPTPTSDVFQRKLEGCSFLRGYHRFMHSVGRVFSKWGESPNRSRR

B1: M10 (antibody, V domains shown)
VH: QVQLVQSGAEVKKPGSSVKVSCKASGGTFSSYAISWVRQAPGQGLEWMGGIIPIFGNANYAQKFQGRVTITADESTSTAYMELSSLRSEDTAVYYCARYGAKGLLDYWGQGTLVTVSS
VL: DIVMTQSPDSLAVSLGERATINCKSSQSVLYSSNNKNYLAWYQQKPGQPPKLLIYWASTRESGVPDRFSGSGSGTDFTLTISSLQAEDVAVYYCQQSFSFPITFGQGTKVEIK
notes: Tested as full-length human IgG1; also called OSMM10; H2/L2
B2: M5 (antibody, V domains shown)
VH: EVQLVQSGAEVKKPGESLKISCKGSGYSFTSYWIGWVRQMPGKGLEWMGIIYPGDSDTRYSPSFQGQVTISADKSISTAYLQWSSLKASDTAMYYCARGFGASYLDYWGQGTLVTVSS
VL: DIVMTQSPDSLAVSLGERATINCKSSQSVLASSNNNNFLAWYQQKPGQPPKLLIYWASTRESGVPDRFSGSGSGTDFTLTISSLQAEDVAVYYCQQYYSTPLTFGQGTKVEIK
notes: Tested as full-length human IgG1; also called OSMM5; H135/L111
B3: Human gp130-Fc (R&D Systems, Cat. No. 671-GP) (Fc fusion, UniProt P40189 23-619, looked up)
chain: ELLDPCGYISPESPVVQLHSNFTAVCVLKEKCMDYFHVNANYIVWKTNHFTIPKEQYTIINRTASSVTFTDIASLNIQLTCNILTFGQLEQNVYGITIISGLPPEKPKNLSCIVNEGKKMRCEWDGGRETHLETNFTLKSEWATHKFADCKAKRDTPTSCTVDYSTVYFVNIEVWVEAENALGKVTSDHINFDPVYKVKPNPPHNLSVINSEELSSILKLTWTNPSIKSVIILKYNIQYRTKDASTWSQIPPEDTASTRSSFTVQDLKPFTEYVFRIRCMKEDGKGYWSDWSEEASGITYEDRPSKAPSFWYKIDPSHTQGYRTVQLVWKTLPPFEANGKILDYEVTLTRWKSHLQNYTVNATKLTVNLTNDRYLATLTVRNLVGKSDAAVLTIPACDFQATHPVMDLKAFPKDNMLWVEWTTPRESVKKYILEWCVLSDKAPCITDWQQEDGTVHRTYLRGNLAESKCYLITVTPVYADGPGSPESIKAYLKQAPPSKGPTVRTKKVGKNEAVLEWDQLPVDVQNGFIRNYTIFYRTIIGNETAVNVDSSHTEYTLSSLTSDTLYMVRMAAYTDEGGKDGPEFTFTTPKFAQGEIE
notes: Bought fusion protein; also called gp130-Fc chimera; Fc part of the bought chimera not given, not described
B4: M9 (antibody, V domains shown)
VH: EVQLVQSGAEVKKPGESLKISCKGSGYSFTSYWISWVRQMPGKGLEWMGIIYPGDSYTRYSPSFQGQVTISADKSISTAYLQWSSLKASDTAMYYCARVPVSPAYLDYWGQGTLVTVSS
VL: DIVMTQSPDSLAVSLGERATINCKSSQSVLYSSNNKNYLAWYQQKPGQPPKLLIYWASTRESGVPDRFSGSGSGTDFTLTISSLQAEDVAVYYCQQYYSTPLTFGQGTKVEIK
notes: Tested as full-length human IgG1; also called OSMM9
B5: M6 (antibody, V domains shown)
VH: EVQLVQSGAEVKKPGESLKISCKGSGYSFTSYWISWVRQMPGKGLEWMGIIYPGDSYTRYSPSFQGQVTISADKSISTAYLQWSSLKASDTAMYYCARGSVFEAYFDYWGQGTLVTVSS
VL: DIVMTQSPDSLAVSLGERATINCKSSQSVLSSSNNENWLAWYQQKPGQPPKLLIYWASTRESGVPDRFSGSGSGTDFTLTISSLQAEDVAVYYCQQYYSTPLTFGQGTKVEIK
notes: Tested as full-length human IgG1; also called OSMM6; H14/L12
B6: M71 (antibody, V domains shown)
VH: EVQLVQSGAEVKKPGESLKISCKGSGYSFTSYWISWVRQMPGKGLEWMGIIYPGDSYTRYSPSFQGQVTISADKSISTAYLQWSSLKASDTAMYYCARVPVSPAYLDYWGQGTLVTVSS
VL: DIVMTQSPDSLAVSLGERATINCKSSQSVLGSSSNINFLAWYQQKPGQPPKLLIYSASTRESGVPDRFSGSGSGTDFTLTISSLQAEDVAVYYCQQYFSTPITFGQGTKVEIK
notes: Human IgG1; also called H17/L180

Key:
[1] = biological target: T1, Cynomolgus monkey (Macaca fascicularis) …; experiment: SPR (Biacore), KD for cyno OSM over KD for human OSM
Experimental: (§1) The binding affinities were measured using Surface Plasmon Resonance (SPR) with a Biacore 3000 optical biosensor (Biacore) using human or Cyno OSM constructs as described. […] Approximately 19,000 RU (response units) of anti-OSM antibody were immobilized in each of four flow cells. The kinetic experiments were performed at 25° C. in running buffer (DPBS+0.005% P20+3 mM EDTA). Serial dilutions Human and Cyno OSM ECD from 100 nM to 0.412 nM were prepared in running buffer. About 200 RU of mAb were captured on flow cells 2 to 4 of the sensor chip. Flow cell 1 was used as reference surface. Capture of mAb was followed by a three-minute injection (association phase) of antigen at 50 μl/min, followed by 10 minutes of buffer flow (dissociation phase). The chip surface was regenerated by two pulses of 18-second injections of 100 mM H3PO4 (Sigma, Cat. No. 7961) at 50 μl/min.
(§2) The collected data was processed using the BIAevaluation software (Biacore, version 3.2). First, double reference subtraction of the data was performed by subtracting the curves generated by buffer injection from the reference-subtracted curves for analyte injections. Kinetic analysis of the data was performed using 1:1 binding model with global fit. The result for each mAb was reported in the format of Ka (On-rate), Kd (Off-rate) and KD (affinity constant).

[2] = biological target: T2, human OSM (recombinant, mammalian-cell …); experiment: SPR (Biacore), mAb captured by anti-Fc, OSM as analyte
Experimental: as §1, §2

[3] = biological target: T1, Cynomolgus monkey (Macaca fascicularis) …; experiment: as above
Experimental: as §1, §2

[4] = biological target: T2, human OSM (recombinant, mammalian-cell …); experiment: SPR competition, hOSM captured on immobilized M2 (competitor), sample at 300 nM
Experimental: (§3) The biosensor surface was prepared by coupling each test mAb to the carboxymethylated dextran surface of a CM-5 chip (Biacore, Cat# BR-1000-14) following the manufacturer's instructions. Approximately 4,000-15,000 RU (response units) of each test mAb were immobilized in one the instrument's four flow cells. Competition experiments were performed at 25 ° C. in running buffer (DPBS+0.005% P20+3 mM EDTA). Human OSM (in-house, OSMN1-1) was diluted to 30 nM in running buffer and injected at 3 μl/min for 3 minutes over each of the flow cells with immobilized mAb. […] The chip surface was regenerated by two 12-second pulses of 100 mM H3PO4 (Sigma, Cat# 7961) at 50 μl/min. The collected data were processed using BIAevaluation software version 3.2 (Biacore). First, the sensorgrams were aligned upon injection of human OSM. […] Flow-cell (Fc1, etc.) immobilized mAbs appear along the horizontal sample rows of Table 10.

[5] = biological target: T2, human OSM (recombinant, mammalian-cell …); experiment: SPR competition, hOSM captured on immobilized M54 (competitor), sample at 300 nM
Experimental: as §3

[6] = biological target: T2, human OSM (recombinant, mammalian-cell …); experiment: SPR competition, hOSM captured on immobilized M69 (competitor), sample at 300 nM
Experimental: as §3

[7] = biological target: T2, human OSM (recombinant, mammalian-cell …); experiment: SPR competition, hOSM captured on immobilized M71 (competitor), sample at 300 nM
Experimental: as §3

[8] = biological target: T2, human OSM (recombinant, mammalian-cell …); experiment: SPR competition, second chip, hOSM captured on immobilized M2 (competitor), sample at 300 nM
Experimental: as §3

[9] = biological target: T2, human OSM (recombinant, mammalian-cell …); experiment: SPR competition, second chip, hOSM captured on immobilized M55 (competitor), sample at 300 nM
Experimental: as §3

[10] = biological target: T2, human OSM (recombinant, mammalian-cell …); experiment: SPR competition, second chip, hOSM captured on immobilized M64 (competitor), sample at 300 nM
Experimental: as §3

[11] = biological target: T2, human OSM (recombinant, mammalian-cell …); experiment: cell-based or functional assay
[12] = biological target: T2, human OSM (recombinant, mammalian-cell …); experiment: cell-based or functional assay; remark: listed apart in the source
[13] = biological target: T3, native human Oncostatin M …; experiment: cell-based or functional assay
[14] = biological target: T4, CHO cell-derived recombinant human …; experiment: cell-based or functional assay
[15] = biological target: T5, CHO cell-derived recombinant …; experiment: cell-based or functional assay

Binder	KD ratio Cyno/Human [1]	Kd [2] [nM]	koff [2] [s⁻¹]	kon [2] [M⁻¹ s⁻¹]	Kd [3] [nM]	koff [3] [s⁻¹]	kon [3] [M⁻¹ s⁻¹]	Binding Level (RU) [4] [RU]	Binding Level (RU) [5] [RU]	Binding Level (RU) [6] [RU]	Binding Level (RU) [7] [RU]	Binding Level (RU) [8] [RU]	Binding Level (RU) [9] [RU]	Binding Level (RU) [10] [RU]	pSTAT3 inhibition EC50 (A375 cells, 5 ng/ml hOSM) [11] [ng/ml]	IC50, neutralization of OSM-induced STAT3 phosphorylation in NHLF cells (2 ng/ml OSM) [12] [µg/mL]	EC50, increase of proteoglycan synthesis in macrophage-chondrocyte co-culture [13] [µg/mL]	IC50, neutralization of OSM suppression of A375-S2 proliferation (BrdU) [14] [µg/mL]	IC50, neutralization of OSM suppression of A375-S2 proliferation (BrdU) [15] [µg/mL]
B1	18.1	1.05	6.3e-05	60200	18.9	0.00101	53300	–	–	–	–	–	–	–	–	–	–	–	–
B2	1	11.8	0.000779	65900	12.1	0.00111	92200	–	–	–	–	–	–	–	–	–	–	–	–
B3	–	–	–	–	–	–	–	319	17	20	29	251	25	18	–	–	–	–	–
B4	0.6	1.22	8.1e-05	66300	0.73	5.4e-05	73100	–	–	–	–	–	–	–	1220	–	–	–	–
B5	1.4	1.03	0.000197	192000	1.48	0.000299	203000	985	11	16	19	926	36	33	650	–	–	–	–
B6	–	–	–	–	–	–	–	1190	-1	23	32	1130	22	17	160	0.0089	0.03	0.0219	0.0397
